According to US20220372154A1 (APEXIGEN, published 2022):

Experiments:
[1] = target: T1, human TNFR2 expressed on cells (human, UniProt P20333 23-461); experiment: Primary Cell Affinity; binding titration on activated human Tregs, flow cytometry
T1 construct: whole, on cells; also called hTNFR2 (cell); CHO-TNFR2
T1 sequence (looked up): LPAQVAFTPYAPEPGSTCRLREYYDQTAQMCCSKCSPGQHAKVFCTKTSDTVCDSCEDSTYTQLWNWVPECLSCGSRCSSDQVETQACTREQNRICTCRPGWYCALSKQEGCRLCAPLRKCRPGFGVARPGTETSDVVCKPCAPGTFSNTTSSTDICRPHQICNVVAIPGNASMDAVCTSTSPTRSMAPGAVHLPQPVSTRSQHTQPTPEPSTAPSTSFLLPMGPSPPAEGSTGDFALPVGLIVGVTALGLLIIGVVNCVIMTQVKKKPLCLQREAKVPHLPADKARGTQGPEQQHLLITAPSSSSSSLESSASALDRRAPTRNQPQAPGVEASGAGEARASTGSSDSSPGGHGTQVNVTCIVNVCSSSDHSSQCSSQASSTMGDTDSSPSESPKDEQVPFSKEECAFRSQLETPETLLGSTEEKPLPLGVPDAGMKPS
Experimental: (§1) To test binding to TNFR family members, target proteins were coated on ELISA plates at 1 μg/mL at 4° C. overnight. Plates were washed, blocked, and antibodies were added at indicated concentrations for 1 hour at RT. Positive control antibodies for each protein were used at ˜1 ug/mL. Antibodies were washed and detected with anti-human IgG HRP for 1 hour. Assay was developed using TMB substrate for 10 minutes. For cell-binding, human CD4+ T cells purified from buffy coats were cultured in flat-bottom plates with anti-CD3/CD28 for 24 hours. Cells were harvested and stained for viability, CD4, CD25 and FOXP3. Test antibody staining was detected using anti-human IgG APC. Binding titration of test antibodies was evaluated on CD4+CD25hiFOXP3+ regulatory T cells and plotted as percent binding.

[2] = target: T1, human TNFR2 expressed on cells; experiment: flow cytometry on cells expressing human TNFR2, MFI median
[3] = target: T2, TNFR2 (as used in the Octet measurement) (UniProt P20333 23-257, limits assumed); experiment: Octet (BLI), monovalent binding
T2 construct: Probably human soluble TNFR2; the legend says only TNFR2
T2 sequence (looked up): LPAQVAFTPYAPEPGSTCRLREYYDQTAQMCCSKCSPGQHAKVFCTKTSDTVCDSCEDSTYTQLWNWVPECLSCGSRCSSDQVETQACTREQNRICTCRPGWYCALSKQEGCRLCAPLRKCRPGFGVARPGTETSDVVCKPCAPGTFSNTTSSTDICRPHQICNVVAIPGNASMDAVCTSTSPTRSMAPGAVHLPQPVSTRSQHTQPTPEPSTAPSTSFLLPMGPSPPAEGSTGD

[4] = target: T3, human TNFR1-His tagged protein (human, UniProt P19438 30-211, limits assumed); experiment: ELISA on coated TNFR1, OD 450 nm
T3 construct: also called soluble human TNFR1; not shown: His tag
T3 sequence (looked up): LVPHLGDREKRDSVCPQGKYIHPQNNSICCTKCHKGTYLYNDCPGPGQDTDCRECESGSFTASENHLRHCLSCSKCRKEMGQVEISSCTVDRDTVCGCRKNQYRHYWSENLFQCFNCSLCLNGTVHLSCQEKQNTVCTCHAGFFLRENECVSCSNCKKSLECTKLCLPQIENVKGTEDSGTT
Experimental: as §1

[5] = target: T1, human TNFR2 expressed on cells; experiment: blocking of biotinylated TNF-α on TNFR2-CHO cells, flow cytometry
Experimental: TNFR2-overexpressing CHO cells were plated at 100,000 cells per well. Cells were incubated with the indicated antibodies for 30 minutes on ice. […] Cells were analyzed using Cytoflex or MACSQuant flow cytometer. Assay was repeated twice.

CD40 = CD40 (UniProt P25942 21-193, limits assumed); experiment: ELISA on coated CD40, OD 650 nm
Chain of CD40 (P25942 21-193 limits assumed): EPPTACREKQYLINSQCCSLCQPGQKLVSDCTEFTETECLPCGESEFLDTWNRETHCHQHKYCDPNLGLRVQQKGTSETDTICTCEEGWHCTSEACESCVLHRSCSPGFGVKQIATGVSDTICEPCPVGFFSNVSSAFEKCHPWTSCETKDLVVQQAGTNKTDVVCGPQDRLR
Experimental: as §1

TNFR-Fc = target: T4, TNFR-Fc (UniProt P20333 23-257, limits assumed); experiment: TNF-α blocking ELISA (soluble)
T4 construct: Printed only as TNFR-Fc; not shown: Fc part
T4 sequence (looked up): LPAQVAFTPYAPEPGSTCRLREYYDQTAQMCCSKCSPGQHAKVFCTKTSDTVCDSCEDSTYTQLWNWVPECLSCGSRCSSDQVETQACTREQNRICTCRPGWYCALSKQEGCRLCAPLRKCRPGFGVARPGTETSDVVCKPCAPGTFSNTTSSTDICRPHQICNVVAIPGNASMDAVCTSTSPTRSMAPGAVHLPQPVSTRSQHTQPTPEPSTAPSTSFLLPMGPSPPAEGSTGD

[6] = target: T5, cynomolgus TNFR2-His tagged protein (cynomolgus, UniProt A0A2K5VET2 132-366); experiment: ELISA on coated cynoTNFR2-His, OD 450 nm
T5 construct: also called Cyno TNFR2; cynomolgus TNFR2 protein; not shown: His tag
T5 sequence: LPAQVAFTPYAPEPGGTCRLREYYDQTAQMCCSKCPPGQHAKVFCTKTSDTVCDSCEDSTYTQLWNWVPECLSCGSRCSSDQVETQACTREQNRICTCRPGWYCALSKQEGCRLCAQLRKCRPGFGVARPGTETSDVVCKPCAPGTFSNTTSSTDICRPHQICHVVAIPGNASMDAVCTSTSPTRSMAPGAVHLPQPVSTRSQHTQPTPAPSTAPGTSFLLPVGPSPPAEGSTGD

[7] = target: T1, human TNFR2 expressed on cells; experiment: flow cytometry, cell-expressed human TNFR2
[8] = target: T6, human TNFR2-His tagged protein (soluble) (human, UniProt P20333 23-257); experiment: ELISA on coated hTNFR2-His, OD 450 nm
T6 construct: also called hTNFR2 (soluble); soluble TNFR2-His; not shown: His tag
T6 sequence (looked up): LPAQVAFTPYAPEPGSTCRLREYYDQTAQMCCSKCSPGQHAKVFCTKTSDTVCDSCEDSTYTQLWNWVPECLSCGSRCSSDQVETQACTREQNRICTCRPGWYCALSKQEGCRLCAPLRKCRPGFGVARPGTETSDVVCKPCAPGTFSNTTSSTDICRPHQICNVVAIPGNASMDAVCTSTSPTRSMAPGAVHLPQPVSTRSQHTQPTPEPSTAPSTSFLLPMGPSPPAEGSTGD

osteoprotegerin (OPG) = target: T7, osteoprotegerin (OPG) (UniProt O00300 22-401, limits assumed); experiment: ELISA on coated OPG, OD 650 nm
T7 sequence (looked up): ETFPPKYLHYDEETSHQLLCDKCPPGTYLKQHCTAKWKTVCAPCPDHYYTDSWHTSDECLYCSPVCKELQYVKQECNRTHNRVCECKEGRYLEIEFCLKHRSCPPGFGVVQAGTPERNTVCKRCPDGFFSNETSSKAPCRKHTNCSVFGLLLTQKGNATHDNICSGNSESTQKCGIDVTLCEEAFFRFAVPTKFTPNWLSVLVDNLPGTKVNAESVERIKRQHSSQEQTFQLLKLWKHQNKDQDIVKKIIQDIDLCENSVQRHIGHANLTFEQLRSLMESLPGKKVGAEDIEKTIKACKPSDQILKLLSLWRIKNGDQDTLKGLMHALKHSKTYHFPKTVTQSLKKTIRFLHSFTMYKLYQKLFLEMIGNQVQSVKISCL
Experimental: as §1

[9] = target: T6, human TNFR2-His tagged protein (soluble); experiment: ELISA, soluble human TNFR2

Kd [1]: 0.047 nM | EC50 (read off the curve) [2]: ~0.3 nM | koff [3]: 0.000553 s⁻¹ | kon [3]: 358000 M⁻¹ s⁻¹ | binding result [4]: no binding (tested: about 67 nM) | IC50 [5]: 0.149 nM | binding result (CD40): no binding (tested: about 67 nM) | IC50 (TNFR-Fc): 1.96 nM | EC50 (read off the curve) [6]: ~0.1 nM | EC50 [7]: 0.242 nM | EC50 (read off the curve) [8]: ~0.2 nM | binding result (osteoprotegerin (OPG)): no binding (tested: about 67 nM) | EC50 [9]: 0.159 nM
B1: humanized antibody h600-25-71 (antibody, V domains shown)
VH: EVQLVESGGGLVQPGGSLRLSCAASGIDLSSYAMGWVRQAPGKGLEWVGDISTSGNAYYATWVKGRFTISRDNSKNTLYLQMNSLRAEDTAVYYCARADYGGETYAFDPWGQGTLVTVSS
VL: DIQMTQSPSSLSASVGDRVTITCQASQSISSYLNWYQQKPGKAPKLLIYSASTLASGVPSRFSGSGSGTDFTLTISSLQPEDFATYYCQQGYSDSNIDNVFGGGTKVEIK
notes: also called Ab 25-71; clone 25-71
